Where no end group is shown, it is not given here.
B1: plasmin: activated plasminogen (protein)
chain: KVYLSECKTGNGKNYRGTMSKTKNGITCQKWSSTSPHRPRFSPATHPSEGLEENYCRNPDNDPQGPWCYTTDPEKRYDYCDILECEEECMHCSGENYDGKISKTMSGLECQAWDSQSPHAHGYIPSKFPNKNLKKNYCRNPDRELRPWCFTTDPNKRWELCDIPRCTTPPPSSGPTYQCLKGTGENYRGNVAVTVSGHTCQHWSAQTPHTHNRTPENFPCKNLDENYCRNPDGKRAPWCHTTNSQVRWEYCKIPSCDSSPVSTEQLAPTAPPELTPVVQDCYHGDGQSYRGTSSTTTTGKKCQSWSSMTPHRHQKTPENYPNAGLTMNYCRNPDADKGPWCFTTDPSVRWEYCNLKKCSGTEASVVAPPPVVLLPDVETPSEEDCMFGNGKGYRGKRATTVTGTPCQDWAAQEPHRHSIFTPETNPRAGLEKNYCRNPDGDVGGPWCYTTNPRKLYDYCDVPQCAAPSFDCGKPQVEPKKCPGRVVGGCVAHPHSWPWQVSLRTRFGMHFCGGTLISPEWVLTAAHCLEKSPRPSSYKVILGAHQEVNLEPHVQEIEVSRLFLEPTRKDIALLKLSSPAVITDKVIPACLPSPNYVVADRTECFITGWGETQGTFGAGLLKEAQLPVIENKVCNRYEFLNGRVQSTELCAGHLAGGTDSCQGDSGGPLVCFEKDKYILQGVTSWGLGCARPNKPGVYVRVSRFVTWIEGVMRNN
B2: RPTPμ-GST: extracellular domain of receptor-like protein tyrosine phosphatase μ with GST tag, control (protein, UniProt P28827 21-742, looked up)
extracellular domain: ETFSGGCLFDEPYSTCGYSQSEGDDFNWEQVNTLTKPTSDPWMPSGSFMLVNASGRPEGQRAHLLLPQLKENDTHCIDFHYFVSSKSNSPPGLLNVYVKVNNGPLGNPIWNISGDPTRTWNRAELAISTFWPNFYQVIFEVITSGHQGYLAIDEVKVLGHPCTRTPHFLRIQNVEVNAGQFATFQCSAIGRTVAGDRLWLQGIDVRDAPLKEIKVTSSRRFIASFNVVNTTKRDAGKYRCMIRTEGGVGISNYAELVVKEPPVPIAPPQLASVGATYLWIQLNANSINGDGPIVAREVEYCTASGSWNDRQPVDSTSYKIGHLDPDTEYEISVLLTRPGEGGTGSPGPALRTRTKCADPMRGPRKLEVVEVKSRQITIRWEPFGYNVTRCHSYNLTVHYCYQVGGQEQVREEVSWDTENSHPQHTITNLSPYTNVSVKLILMNPEGRKESQELIVQTDEDLPGAVPTESIQGSTFEEKIFLQWREPTQTYGVITLYEITYKAVSSFDPEIDLSNQSGRVSKLGNETHFLFFGLYPGTTYSFTIRASTAKGFGPPATNQFTTKISAPSMPAYELETPLNQTDNTVTVMLKPAHSRGAPVSVYQIVVEEERPRRTKKTTEILKCYPVPIHFQNASLLNSQYYFAAEFPADSLQAAQPFTIGDNKTYNGYWNTPLLPYKSYRIYFQAASRANGETKIDCVQVATKGAATPKPVPEPEKQTDHTVK
modifications: extracellular domain GST tag
notes: extracellular domain of receptor-like protein tyrosine phosphatase μ with GST tag, control

Columns and labels:
tPA = molecular target: T1, tPA (Homo sapiens, UniProt P00750); assay: ELISA: binding of tPA to glycated albumin and Hb; conditions: g6p-glycated protein immobilized
T1 construct: purchased Boehringer-Ingelheim (Germany)
Method: Binding of tPA to albumin-g6p (four-week and 23-week incubations), albumin-glyceraldehyde, control albumin, human Hb-g6p (ten-week incubation), Hb control, or to Aβ (1-40) was tested using an enzyme-linked immunosorbent assay (ELISA) set-up. Albumin-g6p and control albumin (2.5 μg ml^−1 in coat buffer, 50 mM Na2CO3/NaHCO3 pH 9.6, 0.02% m/v NaN3, 50 μl/well) were immobilized for one hour at room temperature in 96-well protein Immobilizer plates (Exiqon, Vedbaek, Denmark). Aβ (1-40) (10 μg ml^−1 in coat buffer) was immobilized for 75 minutes at room temperature in a 96-well peptide Immobilizer plate (Exiqon, Vedbaek, Denmark). Control wells were incubated with coat buffer only. After a wash step with 200 μl of PBS/0.1% v/v Tween 20, plates were blocked with 300 μl of PBS/1% v/v Tween 20, for two hours at room temperature while shaking. All subsequent incubations were performed in PBS/0.1% v/v Tween 20 for one hour at room temperature while shaking, with volumes of 50 μl per well. After each incubation, wells were washed five times with 200 μl of PBS/0.1% v/v Tween 20. Increasing amounts of f.l. tPA or K2-P tPA was added in triplicate to coated wells and to control wells. […] Absorbance was read at 490 nm on a Vmax kinetic microplate reader (Molecular Devices, Sunnyvale, Calif., USA).

Aβ (1-40) = Aβ (1-40) (Homo sapiens, UniProt P05067); assay: ELISA: binding of tPA-F-GST and RPTPμ-GST to human Aβ (1-40); design: Peptide Aβ (1-40), containing amino acids as present in the described human Alzheimer peptide; purchased Pepscan, Inc. (The Netherlands) or peptide synthesis facility at the Netherlands Cancer Institute; host or cells: synthetic peptide; conditions: detection with anti-GST 2F3
Method: (§1) Binding of tPA-F-GST and RPTPμ-GST to fibrous amyloids human Aβ (1-40) and albumin-[…] was assayed with an ELISA. In brief, human Aβ (1-40), albumin-[…], or buffer only, were coated on a peptide I Immobilizer or a protein I Immobilizer, respectively. Wells were incubated with the purified GST-tagged constructs or control medium and binding was detected using primary anti-GST monoclonal antibody 2F3 and RAMPO. The wells were also incubated with […] of tPA in the presence of 10 mM of εACA. Binding of tPA is independent of the lysyl binding site located at the kringle 2 domain. Binding of tPA was measured using primary antibody 374B and RAMPO. Experiments were performed in triplicate and blank readings of non-coated wells were substracted.

albumin-g6p = molecular target: T2, albumin-g6p (Bos taurus, UniProt P02769); assay: ELISA: binding of tPA-F-GST and RPTPμ-GST to glycated albumin; design: species or system bovine; conditions: detection with anti-GST 2F3
T2 construct: Bovine serum albumin (BSA) fraction V pH 7.0; host or cells: bovine serum, fraction V
Method: as §1

Aβ fibrils = molecular target: T3, Aβ fibrils (Homo sapiens, UniProt P05067); assay: Amyloid pull-down with insoluble Aβ fibers; assay type: binding; conditions: conditioned BHK medium
T3 construct: Peptide Aβ (1-40), containing amino acids as present in the described human Alzheimer peptide; purchased Pepscan, Inc. (The Netherlands) or peptide synthesis facility at the Netherlands Cancer Institute; host or cells: synthetic peptide
Method: Conditioned medium of BHK cells expressing GST-tagged tPA F, F-EGF, EGF, K1, F-EGF-K1, FXII F, HGFa F, Fn F4, Fn F5, Fn F4-5 and GST was used for amyloid binding assays. At first, constructs were adjusted to approximately equal concentration using Western blots. Qualitative binding of the recombinant fragments were evaluated using a “pull-down” assay. To this end, the recombinantly made fragments were incubated with either Aβ or IAPP fibrils. Since these peptides form insoluble fibers, unbound proteins can be easily removed from the fibers following centrifugation. The pellets containing the bound fragments were subsequently washed several times. Bound fragments were solubilized in SDS-sample buffer and analyzed by PAGE, as were unbound proteins in the supernatant fraction and starting material. The gels were analyzed using immunoblotting analysis with the anti-GST antibody Z-5.

Aβ = molecular target: T4, Aβ (Homo sapiens, UniProt P05067); assay: Solid-phase binding ELISA of tPA, plasminogen and plasmin to coated Aβ; conditions: 50 mM ε-aminocaproic acid
T4 construct: Peptide Aβ (1-40), containing amino acids as present in the described human Alzheimer peptide; purchased Pepscan, Inc. or peptide synthesis facility of the Netherlands Cancer Institute; host or cells: chemical synthesis
Method: FIG. 3 is a set of graphs depicting binding of tPA, plasminogen and plasmin to Aβ. Aβ was coated onto plastic 96-well plates. Increasing concentrations of either (A) tPA or (B) plasmin(ogen) were allowed to bind to the immobilized peptide. After extensive washing, tPA and plasmin(ogen) binding was assessed by enzyme-linked immunosorbent assays using anti-tPA and anti-plasminogen antibodies. Binding of (C) tPA and (D) plasmin to Aβ in the presence of 50 mM ε-aminocaproic acid (ε-ACA) was assessed as in A and B.
To test whether tPA, plasminogen and plasmin bind Aβ, solid-phase binding assays were performed. Aβ was coated onto plastic 96-well plates and binding of the peptide to either plasmin(ogen) or to tPA was assessed by overlaying the coated peptide with increasing concentrations of either tPA, plasminogen or plasmin. Binding was assessed using specific antibodies to either plasmin(ogen) or to tPA by performing ELISA. […] However, activated plasminogen (plasmin) does bind to Aβ and does so with a kD of 47 nM. […] To test this, use was made of the lysine analogue ε-aminocaproic acid (εACA) and binding of plasmin and tPA to Aβ was tested in its presence. […] In contrast, εACA has no effect on the tPA-Aβ interaction (FIG. 3, Panel C). Thus, it was concluded that plasmin binds to free lysines that were generated during the incubation period, presumably via its lysine-binding Kringle domain(s). In line with this, the kD of plasminogen Kringle domain binding to free lysines in fibrin is similar to the kD for plasmin binding to Aβ.

[1] = tested on: differentiated N1E-115 cells; assay: N1E-115 cell detachment (methylene blue staining); assay type: cell-based, mouse; conditions: plasmin added with Aβ (25 μM), 48 hours
Method: FIG. 4 is a set of graphs illustrating stimulation of tPA-mediated plasmin formation by Aβ and synergistic stimulation of cell detachment by plasminogen and Aβ. Panel A depicts that plasminogen (200 μg/ml) and tPA (200 pM) were incubated with Aβ (5 μM) or control buffer. Samples were taken from the reaction mixture at the indicated periods of time and plasmin activity was measured by conversion of the chromogenic plasmin substrate S-2251 at 405 nm. […] After 48 hours, the dead cells were washed away and the remaining adherent cells were stained with methylene blue. Plasmin cannot prevent Aβ-induced cell detachment. Panel C illustrates that N1E-115 cells were differentiated and received the indicated concentrations of plasminogen in the presence or absence of 10 μM Aβ. After 24 hours, cell detachment was assessed. […] Panel D is an immunoblot analysis of plasmin formation and laminin degradation. Differentiated N1E-115 cells were treated with or without Aβ (10 μM) in the absence or presence of added plasminogen. Addition of Aβ results in the formation of plasmin (bottom panel) and in degradation of laminin (top panel).
FIG. 5 depicts graphs illustrating that carboxypeptidase B inhibits Aβ-stimulated tPA-mediated plasmin formation and cell detachment. […] Samples were taken from the reaction mixture at the indicated periods of time and plasmin activity was measured by conversion of the chromogenic plasmin substrate S-2251 at 405 nm. The reaction was performed in the absence or the presence of 50 μg ml^−1 carboxypeptidase B (CpB) and in the absence or presence of 3.5 μM carboxypeptidase inhibitor (CPI). CpB greatly attenuates A-stimulated plasmin formation. […] After 24 hours, the cells were photographed. Panel C illustrates that, subsequently, the cells were washed once with PBS and the remaining cells were quantified as percentage-adhered cells by methylene blue staining. In Panel D, the cells were treated as in Panels B and C and medium and cell fractions were collected and analyzed by Western blot using an anti-plasmin(ogen) antibody. Aβ stimulates plasmin formation that is inhibited by CpB.
N1E-115 mouse neuroblastoma cells were routinely cultured in DMEM containing 5% FCS, supplemented with antibiotics. Cells were differentiated into post-mitotic neurons.^52 The cells were exposed to Aβ (50 μg ml^−1) for 24 hours in the presence or absence of 20 μg ml^−1 plasminogen in the presence or absence of 50 μg ml^−1 CpB. Cells were photographed, counted and lysed by the addition of 4× sample buffer (250 mM Tris pH 6.8, 8% SDS, 10% glycerol, 100 mM DTT, 0.01% w/v bromophenol blue) to the medium. The lysate, containing both adherent and floating (presumably dying and/or dead) cells, as well as the culture medium, were analyzed for the presence of plasminogen and plasmin, as well as for laminin, by Western blot analysis using specific antibodies against plasminogen (MoAb 3642, American Diagnostics), laminin (PoAb L9393, Sigma).

Chain of Aβ (1-40) (P05067 672-711): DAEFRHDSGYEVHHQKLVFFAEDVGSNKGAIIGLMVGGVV
T2 sequence (P02769 25-607): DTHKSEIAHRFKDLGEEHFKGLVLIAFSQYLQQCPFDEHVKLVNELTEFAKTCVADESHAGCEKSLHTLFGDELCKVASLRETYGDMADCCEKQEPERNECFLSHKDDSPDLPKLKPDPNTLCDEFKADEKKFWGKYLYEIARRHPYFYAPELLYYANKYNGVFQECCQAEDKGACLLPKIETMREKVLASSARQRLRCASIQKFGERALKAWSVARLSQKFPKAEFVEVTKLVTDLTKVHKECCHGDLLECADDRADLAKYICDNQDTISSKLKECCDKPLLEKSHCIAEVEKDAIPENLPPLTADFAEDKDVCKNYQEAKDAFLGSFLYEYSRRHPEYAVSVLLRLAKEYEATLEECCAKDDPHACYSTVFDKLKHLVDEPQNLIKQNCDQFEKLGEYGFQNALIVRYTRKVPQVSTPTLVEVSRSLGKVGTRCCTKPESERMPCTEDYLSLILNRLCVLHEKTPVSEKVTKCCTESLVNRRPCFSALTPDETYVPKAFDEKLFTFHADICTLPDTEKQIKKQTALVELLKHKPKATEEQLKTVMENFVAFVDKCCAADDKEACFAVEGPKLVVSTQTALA
T3 sequence (P05067 672-711): as the sequence (P05067 672-711) above
T4 sequence (P05067 672-711): as above
T1 sequence (P00750 36-562): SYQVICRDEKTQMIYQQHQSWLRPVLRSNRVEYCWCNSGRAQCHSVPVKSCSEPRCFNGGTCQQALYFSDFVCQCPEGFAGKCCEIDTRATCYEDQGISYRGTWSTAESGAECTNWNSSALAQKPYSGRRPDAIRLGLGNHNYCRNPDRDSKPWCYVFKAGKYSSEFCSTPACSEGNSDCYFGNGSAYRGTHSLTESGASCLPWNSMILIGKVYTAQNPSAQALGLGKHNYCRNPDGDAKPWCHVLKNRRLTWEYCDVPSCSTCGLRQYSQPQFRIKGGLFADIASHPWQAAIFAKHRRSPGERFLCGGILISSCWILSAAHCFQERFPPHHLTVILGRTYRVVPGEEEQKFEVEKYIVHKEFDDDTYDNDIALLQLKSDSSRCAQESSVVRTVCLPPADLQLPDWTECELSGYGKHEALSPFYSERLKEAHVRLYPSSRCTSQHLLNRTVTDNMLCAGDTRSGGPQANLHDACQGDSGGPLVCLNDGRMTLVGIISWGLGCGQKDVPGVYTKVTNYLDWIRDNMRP

Molecule	binding of GST-tagged construct to human Aβ (1-40) (Aβ (1-40))	binding of GST-tagged construct to albumin-g6p (albumin-g6p)	further results
Hb-g6p: human hemoglobin incubated with glucose-6-phosphate	–	–	tPA binding (tPA): high-affinity tPA binding
tPA-F-GST: amino-terminal finger domain (F) of human tPA, residues Ser1-Ser50, with GST tag (SYQVICRDEKTQMIYQQHQSWLRPVLRSNRVEYCWCNSGRAQCHSVPVKS-{GST}; cysteine pairing not given here)	bound	bound	binding to Aβ fibers (pull-down, Western blot) (Aβ fibrils): Efficient binding
B1	–	–	binding to Aβ in the presence of εACA (Aβ): completely abolished; effect on Aβ-induced cell detachment [1]: unable to ameliorate
B2	no binding	no binding	–

Reference: patent US8158585B2, “Cross-β structure comprising amyloid-binding proteins and methods for detection of the cross-β structure, for modulating cross-β structures fiber formation and modulating cross-β structure-mediated toxicity” (CrossBeta Biosciences B.V., priority 2002, dated 2012)
